Assay results from patent publication US20160136231A1.

Target: mouse ChemR23, PathHunter β-Arrestin cell line (mouse) (UniProt P97468)
Assay: cell-based or functional assay

mouse ChemR23, PathHunter β-Arrestin cell line (mouse), sequence (P97468 whole entry): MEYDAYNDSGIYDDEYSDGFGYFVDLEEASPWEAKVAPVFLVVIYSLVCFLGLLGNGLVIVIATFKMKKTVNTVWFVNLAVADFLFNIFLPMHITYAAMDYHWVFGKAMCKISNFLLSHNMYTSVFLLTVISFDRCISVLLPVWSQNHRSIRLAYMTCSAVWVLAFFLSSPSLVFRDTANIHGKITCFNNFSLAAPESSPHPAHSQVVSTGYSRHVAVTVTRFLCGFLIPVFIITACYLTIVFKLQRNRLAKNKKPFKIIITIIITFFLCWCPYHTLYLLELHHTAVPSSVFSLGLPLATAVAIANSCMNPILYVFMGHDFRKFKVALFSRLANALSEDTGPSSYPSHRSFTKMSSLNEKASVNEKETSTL

EC50, Arrestin, Agonist (RC50, uM): 0.00154 µM
Substance: hrChemerin (from UniProt Q99969 21-157) (ligand)
